Measured values published in publication PMC2756588.

B1: unnamed (peptide)
chain: KDKKTKPTPPPKPSH
B2: unnamed (peptide)
chain: GSKSGPPPRPKKPST
B3: unnamed (peptide)
chain: STKKPRPPVKSKPKH

target: Bem1-1, P29366; assay: SPOT array; details: median of control spots 4282
Sequence (P29366 55-141): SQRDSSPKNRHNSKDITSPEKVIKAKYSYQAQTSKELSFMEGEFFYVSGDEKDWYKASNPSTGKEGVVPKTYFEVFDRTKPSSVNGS

| Binder | SPOT intensity |
| --- | --- |
| B1 | 1 |
| B2 | 1 |
| B3 | 0 |

target: T1, Boi1, P38041; assay: SPOT array; details: median of control spots 1162
T1 sequence (P38041 1-86, looked up): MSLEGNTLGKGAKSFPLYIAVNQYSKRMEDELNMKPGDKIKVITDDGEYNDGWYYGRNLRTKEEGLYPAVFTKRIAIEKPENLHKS

| Binder | SPOT intensity |
| --- | --- |
| B1 | 0 |
| B2 | 4 |
| B3 | 0 |

target: T2, Bzz1-2, P38822; assay: SPOT array; details: median of control spots 4538
T2 sequence (P38822 568-633, looked up): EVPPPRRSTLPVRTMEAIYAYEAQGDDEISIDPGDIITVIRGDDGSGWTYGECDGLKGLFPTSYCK

| Binder | SPOT intensity |
| --- | --- |
| B1 | 1 |
| B2 | 11 |
| B3 | 5 |

target: Bem1-2, P29366; assay: SPOT array; details: median of control spots 4347
Sequence (P29366 139-227): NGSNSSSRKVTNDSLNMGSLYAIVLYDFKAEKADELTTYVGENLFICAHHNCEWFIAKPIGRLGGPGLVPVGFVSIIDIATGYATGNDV

| Binder | SPOT intensity |
| --- | --- |
| B1 | 5 |
| B2 | 2 |
| B3 | 2 |

target: Myo3, P36006; assay: SPOT array; details: median of control spots 468

| Binder | SPOT intensity |
| --- | --- |
| B1 | 0 |
| B2 | 3 |
| B3 | 0 |

target: T3, Hof1, Q05080; assay: SPOT array; details: median of control spots 4086
T3 sequence (Q05080 590-669, looked up): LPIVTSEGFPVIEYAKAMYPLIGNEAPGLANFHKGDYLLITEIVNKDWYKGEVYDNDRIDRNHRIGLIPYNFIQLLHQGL

| Binder | SPOT intensity |
| --- | --- |
| B1 | 0 |
| B2 | 0 |
| B3 | 0 |

target: T4, Boi2, P39969; assay: SPOT array; details: median of control spots 1161
T4 sequence (P39969 32-116, looked up): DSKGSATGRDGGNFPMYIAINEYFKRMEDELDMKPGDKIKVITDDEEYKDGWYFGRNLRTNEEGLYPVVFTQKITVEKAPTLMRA

| Binder | SPOT intensity |
| --- | --- |
| B1 | 0 |
| B2 | 0 |
| B3 | 1 |

target: T5, Sla1-3, P32790; assay: SPOT array; details: median of control spots 5475
T5 sequence (P32790 344-424, looked up): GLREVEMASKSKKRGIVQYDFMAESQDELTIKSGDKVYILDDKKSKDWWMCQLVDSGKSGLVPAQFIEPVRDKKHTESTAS

| Binder | SPOT intensity |
| --- | --- |
| B1 | 0 |
| B2 | 4 |
| B3 | 5 |

target: T6, Lsb3, P43603; assay: SPOT array; details: median of control spots 406
T6 sequence (P43603 385-451, looked up): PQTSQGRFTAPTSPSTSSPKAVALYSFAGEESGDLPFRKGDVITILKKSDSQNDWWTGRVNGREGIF

| Binder | SPOT intensity |
| --- | --- |
| B1 | 2 |
| B2 | 55 |
| B3 | 0 |

target: T7, Bud14, P27637; assay: SPOT array; details: median of control spots 956
T7 sequence (P27637 247-328, looked up): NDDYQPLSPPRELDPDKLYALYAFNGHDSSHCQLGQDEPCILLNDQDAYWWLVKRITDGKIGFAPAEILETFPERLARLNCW

| Binder | SPOT intensity |
| --- | --- |
| B1 | 4 |
| B2 | 7 |
| B3 | 3 |

target: T8, Nbp2, Q12163; assay: SPOT array; details: median of control spots 357
T8 sequence (Q12163 103-180, looked up): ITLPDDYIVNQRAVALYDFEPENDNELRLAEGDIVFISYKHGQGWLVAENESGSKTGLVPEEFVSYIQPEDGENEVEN

| Binder | SPOT intensity |
| --- | --- |
| B1 | 2 |
| B2 | 0 |
| B3 | 0 |

target: T9, Abp1, P15891; assay: SPOT array; details: median of control spots 935
T9 sequence (P15891 535-592, looked up): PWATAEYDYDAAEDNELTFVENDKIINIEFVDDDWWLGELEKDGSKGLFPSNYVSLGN

| Binder | SPOT intensity |
| --- | --- |
| B1 | 190 |
| B2 | 285 |
| B3 | 397 |

target: GST; assay: SPOT array; details: median of control spots 978

| Binder | SPOT intensity |
| --- | --- |
| B1 | 3 |
| B2 | 2 |
| B3 | 2 |

target: T10, Myo5, Q04439; assay: SPOT array; details: median of control spots 471
T10 sequence (Q04439 1072-1160, looked up): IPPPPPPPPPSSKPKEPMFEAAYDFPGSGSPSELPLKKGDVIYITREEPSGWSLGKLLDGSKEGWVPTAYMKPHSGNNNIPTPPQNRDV

| Binder | SPOT intensity |
| --- | --- |
| B1 | 0 |
| B2 | 0 |
| B3 | 0 |

target: T11, Cyk3, Q07533; assay: SPOT array; details: median of control spots 1451
T11 sequence (Q07533 1-83, looked up): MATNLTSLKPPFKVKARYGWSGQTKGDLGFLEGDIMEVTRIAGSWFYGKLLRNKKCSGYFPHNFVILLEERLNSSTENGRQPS

| Binder | SPOT intensity |
| --- | --- |
| B1 | 2 |
| B2 | 3 |
| B3 | 3 |

target: T12, Fus1, P11710; assay: SPOT array; details: median of control spots 1200
T12 sequence (P11710 432-512, looked up): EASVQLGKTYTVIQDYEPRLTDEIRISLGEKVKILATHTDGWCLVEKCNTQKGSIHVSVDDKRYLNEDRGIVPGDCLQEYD

| Binder | SPOT intensity |
| --- | --- |
| B1 | 4 |
| B2 | 0 |
| B3 | 1 |

target: T13, Pex13, P80667; assay: SPOT array; details: median of control spots 1341
T13 sequence (P80667 295-386, looked up): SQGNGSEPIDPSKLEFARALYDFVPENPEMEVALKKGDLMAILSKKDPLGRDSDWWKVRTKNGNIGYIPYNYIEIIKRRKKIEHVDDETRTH

| Binder | SPOT intensity |
| --- | --- |
| B1 | 0 |
| B2 | 23 |
| B3 | 0 |

target: Rvs167, P39743; assay: SPOT array; details: median of control spots 2707
Sequence (P39743 419-482): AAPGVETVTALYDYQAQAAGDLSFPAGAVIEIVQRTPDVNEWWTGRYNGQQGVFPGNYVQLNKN

| Binder | SPOT intensity |
| --- | --- |
| B1 | 1 |
| B2 | 1 |
| B3 | 12 |

target: T14, Cdc25, P04821; assay: SPOT array; details: median of control spots 969
T14 sequence (P04821 50-136, looked up): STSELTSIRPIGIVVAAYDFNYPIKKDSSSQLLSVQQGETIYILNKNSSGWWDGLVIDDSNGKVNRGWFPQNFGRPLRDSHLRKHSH

| Binder | SPOT intensity |
| --- | --- |
| B1 | 2 |
| B2 | 0 |
| B3 | 0 |

target: T15, Sla1-2, P32790; assay: SPOT array; details: median of control spots 712
T15 sequence (P32790 60-140, looked up): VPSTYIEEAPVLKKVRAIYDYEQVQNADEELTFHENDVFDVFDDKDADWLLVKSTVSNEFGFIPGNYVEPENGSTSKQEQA

| Binder | SPOT intensity |
| --- | --- |
| B1 | 1 |
| B2 | 1 |
| B3 | 0 |

target: T16, Lsb1, P53281; assay: SPOT array; details: median of control spots 388
T16 sequence (P53281 45-122, looked up): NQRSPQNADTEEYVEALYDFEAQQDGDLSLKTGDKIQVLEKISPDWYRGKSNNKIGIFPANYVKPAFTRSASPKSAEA

| Binder | SPOT intensity |
| --- | --- |
| B1 | 0 |
| B2 | 0 |
| B3 | 0 |

target: T17, Bzz1-1, P38822; assay: SPOT array; details: median of control spots 4446
T17 sequence (P38822 478-572, looked up): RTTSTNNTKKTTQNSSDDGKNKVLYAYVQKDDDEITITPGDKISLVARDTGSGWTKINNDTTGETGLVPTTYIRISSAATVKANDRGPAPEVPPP

| Binder | SPOT intensity |
| --- | --- |
| B1 | 0 |
| B2 | 3 |
| B3 | 1 |

target: T18, Bbc1, P47068; assay: SPOT array; details: median of control spots 796
T18 sequence (P47068 1-78, looked up): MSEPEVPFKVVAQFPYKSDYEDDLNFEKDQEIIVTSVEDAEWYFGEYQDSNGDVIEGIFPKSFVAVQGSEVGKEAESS

| Binder | SPOT intensity |
| --- | --- |
| B1 | 0 |
| B2 | 13 |
| B3 | 3 |

target: T19, Pin3, Q06449; assay: SPOT array; details: median of control spots 2171
T19 sequence (Q06449 53-122, looked up): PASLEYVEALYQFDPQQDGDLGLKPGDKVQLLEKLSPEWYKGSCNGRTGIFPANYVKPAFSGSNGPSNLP

| Binder | SPOT intensity |
| --- | --- |
| B1 | 0 |
| B2 | 2 |
| B3 | 0 |

target: T20, Hse1, P38753; assay: SPOT array; details: median of control spots 1727
T20 sequence (P38753 208-285, looked up): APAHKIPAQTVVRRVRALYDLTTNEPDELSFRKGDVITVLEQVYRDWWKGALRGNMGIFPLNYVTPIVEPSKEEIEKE

| Binder | SPOT intensity |
| --- | --- |
| B1 | 2 |
| B2 | 38 |
| B3 | 1 |

target: Sho1, P40073; assay: SPOT array; details: median of control spots 1148
Sequence (P40073 287-367): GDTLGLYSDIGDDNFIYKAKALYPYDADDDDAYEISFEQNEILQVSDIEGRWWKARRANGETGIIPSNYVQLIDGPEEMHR

| Binder | SPOT intensity |
| --- | --- |
| B1 | 50 |
| B2 | 16 |
| B3 | 12 |

target: T21, Lsb4, P32793; assay: SPOT array; details: median of control spots 397
T21 sequence (P32793 402-468, looked up): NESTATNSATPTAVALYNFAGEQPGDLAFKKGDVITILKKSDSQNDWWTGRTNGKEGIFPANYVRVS

| Binder | SPOT intensity |
| --- | --- |
| B1 | 0 |
| B2 | 2 |
| B3 | 0 |
